The target in experiment [1] is T1, SARS-CoV-2 S trimer (soluble spike ectodomain trimer) (SARS-CoV-2, UniProt P0DTC2 14-1213). As to the kind of experiment: SPR. In general terms: SPR reads the build-up and loss of mass on a sensor chip optically.
Experiment [2] deals with T1, SARS-CoV-2 S trimer (soluble spike …). As to the kind of experiment: ELISA. For orientation: ELISA stands for enzyme-linked immunosorbent assay.
Experiment [3] shares this target. As to the kind of experiment: SPR. The source holds these as a separate data set.
Experiment [4] has as its target T2, SARS-CoV-2 receptor binding domain (RBD) (SARS-CoV-2, UniProt P0DTC2 319-591). Kind of experiment: ELISA.
The target of experiment [5] is T1, SARS-CoV-2 S trimer (soluble spike …). As to the kind of experiment: SPR. The source holds these as a separate data set.
Experiment [6] concerns the target T2, SARS-CoV-2 receptor binding domain (RBD). As to the kind of experiment: SPR.

Like-named read-outs stand apart in the source and are kept apart here.

B1: monoclonal antibody 2-51 (antibody, V domains shown)
VH: QVQLVQSGAEVKKPGASVKVSCKVSGYTLIELSMHWVRQAPGKGLEWMGGFDPEDVETIYAQQFQGRVTMTEDTSTDTAYMELSSLRSEDTAVYYCATGWAYKSTWYFGYWGQGTLVTVSS
VL: QSALTQPPSASGSPGQSVTISCTGTSSDVGGYNYVSWYQQHPGKAPKLMIYEVSKRPSGVPDRFSGSKSGNTASLTVSGLQAEDEADYYCSSYAGSRMGFGGGTKLTVL
As usually defined, the Kd is the constant that tells how readily two partners part at equilibrium. Broadly, the EC50 is the concentration needed to bring the measured effect to its halfway point. The molecule B1 gave a Kd in experiment [1] of 77.1 nM. In experiment [2], this molecule showed an EC50 of 0.017 µg/mL.

B2: monoclonal antibody 2-15 (antibody, V domains shown)
VH: QVQLVQSGAEVKKPGASVRVSCKASGYTFTGYYMHWVRQAPGQGLEWMGWINPISDGTNYAQKFQGWVTMTRDTSISTVYMELSRLRSDDTAVYYCARGGSRCSGGNCYGWAYDAFDIWGQGTMITVSS
VL: QSALTQPASVSGSPGQSITISCTGTSSDVGGYNFVSWYQQHPGKAPKLMIYDVSKRPSGVSNRFSGSKSGNTASLTISGLQAEDEADCYCSSYTSSSTFVFGTGTKVTVL
With B2, binding in experiment [3] was put at a Kd of 5.7 nM. Further, the results for the EC50 in experiment [2] and in experiment [4] were 0.006 µg/mL and 0.008 µg/mL, respectively.

B3: monoclonal antibody 2-38 (antibody, V domains shown)
VH: EVQLVESGGGLVKPGGSLRLSCAASGFTFSSYSMNWVRQAPGKGLEWVSSISSSSSYIYYADSVKGRFTISRDNAKNSLYLQMNSLRAEDTAVYYCTRAGWELRLDAFDIWGQGTMVTVSS
VL: SSELTQDPAVSVALGQTVRITCQGDSLRSSYASWYQQKPGQAPILVIYDKNNRPSGIPDRFSGSSSGNTASLTITGAQAEDEADYYCNSRDSSGILFGGGTKLTVL
Consider B3, for which the Kd in experiment [3] is 51.4 nM. For the same molecule, the values for the EC50 in experiment [2] and in experiment [4] were 0.305 µg/mL and 0.289 µg/mL, respectively.

B4: monoclonal antibody 2-4 (antibody, V domains shown)
VH: QVQLVQSGAEVKKPGASVKVSCKASGYTFTGYYMHWVRQAPGQGLEWMGWINPNSGGTNYTQMFQGRVTMTRDTSISTAYMEVSRLRSDDTAVYYCARDRSWAVVYYYMDVWGKGTTVTVSS
VL: QSALTQPPSASGSPGQSVTISCTGTSSDVGGYNYVSWYQQHPGKAPKLMIYEVSKRPSGVPDRFSGSKSGNTASLTVSGLQAEDEADYYCSSYAGSNNLVFGGGTKLTVL
With B4, the Kd amounted to 41.2 nM in experiment [5], 8.7 nM in experiment [3] and 34.2 nM in experiment [6]. In addition, the figures for the EC50 in experiment [2] and in experiment [4] were 0.018 µg/mL and 0.021 µg/mL, respectively.

Values taken from US20230203134A1 (published 2023).
